We go through one molecule from US20260209318A1 (NATIONAL UNIVERSITY OF SINGAPORE, published 2026).

The assay addresses SARS-CoV-2 spike protein RBD (SARS-CoV-2, UniProt P0DTC2 319-541). As to the kind of experiment: multiplex sVNT, RBD-coated beads, PE-hACE2 as competitor.

B1: SS6V11-E7 (antibody, V domains shown)
VH: QVQLQESGPGLVKPSETLSLTCTVSGGFIGPHYWSWVRQPPGKGLEWIGYIYISGSTNYNPSLKSRLTISVDMSKSQFSLTLSSATAADTAVYYCARGGGYLETGPFEYWGQGTLVTVSS
VL: DIVMTQSPLSLPVTPGEPASISCRSSQSLLQNNGYNYLAWYLQKPGQSPQLLIYLSSTRASGVPDRFSGSGSGTDFTLKISRVEAEDVGVYYCMQSLQIPGTFGQGTRLEIK
In the case of B1, the binding result is listed as “binds”.
